Source: paper PMC11033526, “Direct binding of calmodulin to the cytosolic C-terminal regions of sweet/umami taste receptors” (Journal of Biochemistry, 2023)

How the values were obtained:
[1] = target: biotin-mT1r1 CT peptide (cytosolic C-terminal region of mouse taste receptor type 1 subunit 1) (mouse) (UniProt Q99PG6); assay: SPR; Biacore 2000; biotinylated T1r peptides on a CAP chip (Biotin CAPture Kit); mCaM injected, 2-fold dilutions from 50 μM, -Ca2+ (1 mM EGTA), 25°C, 30 μl/min
[2] = target: biotin-mT1r2 CT peptide (cytosolic C-terminal region of mouse taste receptor type 1 subunit 2) (mouse) (UniProt Q925I4); assay: as above
Sequence of biotin-mT1r2 CT peptide (cytosolic C-terminal region of mouse taste receptor type 1 subunit 2) (mouse) (Q925I4 other isoform, or with tags, fused parts or gaps): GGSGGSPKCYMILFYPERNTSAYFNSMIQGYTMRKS

[3] = target: biotin-mT1r3 CT peptide (cytosolic C-terminal region of mouse taste receptor type 1 subunit 3) (mouse) (UniProt Q925D8); assay: as above
Sequence of biotin-mT1r3 CT peptide (cytosolic C-terminal region of mouse taste receptor type 1 subunit 3) (mouse) (Q925D8 other isoform, or with tags, fused parts or gaps): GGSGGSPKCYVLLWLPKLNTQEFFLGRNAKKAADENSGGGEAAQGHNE

[4] = target: FLAG-ySUMO-mT1r2 CTΔ (mouse); assay: SPR; Biacore 2000; ySUMO-fusion proteins amine-coupled on a CM5 chip, ySUMO on the reference cell; mCaM injected, 2-fold dilutions from 40 μM, -Ca2+ (1 mM EGTA), 25°C, 30 μl/min
[5] = target: FLAG-ySUMO-mT1r3 CTΔ (mouse); assay: as above
[6] = target: biotin-mT1r1 CT peptide (cytosolic C-terminal region of mouse taste receptor type 1 subunit 1) (mouse) (UniProt Q99PG6); assay: SPR; Biacore 2000; biotinylated T1r peptides on a CAP chip (Biotin CAPture Kit); mCaM injected, 2-fold dilutions from 50 μM, +Ca2+ (1 mM CaCl2), 25°C, 30 μl/min; KD from equilibrium responses, 1:1 model
[7] = target: biotin-mT1r2 CT peptide (cytosolic C-terminal region of mouse taste receptor type 1 subunit 2) (mouse) (UniProt Q925I4); assay: as above
[8] = target: biotin-mT1r3 CT peptide (cytosolic C-terminal region of mouse taste receptor type 1 subunit 3) (mouse) (UniProt Q925D8); assay: as above
[9] = target: FLAG-ySUMO-mT1r2 CTΔ (mouse); assay: SPR; Biacore 2000; ySUMO-fusion proteins amine-coupled on a CM5 chip, ySUMO on the reference cell; mCaM injected, 2-fold dilutions from 40 μM, +Ca2+ (1 mM CaCl2), 25°C, 30 μl/min; KD from equilibrium responses, 1:1 model
[10] = target: FLAG-ySUMO-mT1r3 CTΔ (mouse); assay: as above

Sequence of biotin-mT1r1 CT peptide (cytosolic C-terminal region of mouse taste receptor type 1 subunit 1) (mouse) (Q99PG6 other isoform, or with tags, fused parts or gaps): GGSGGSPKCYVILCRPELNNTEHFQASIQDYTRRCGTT

Substance: mouse calmodulin (from UniProt P0DP26 1-149) (natural protein)
- response at 50 μM mCaM injection [1]: 5 RU
- response at 50 μM mCaM injection [2]: 9.4 RU
- response at 50 μM mCaM injection [3]: 16 RU
- response at 40 μM mCaM injection [4]: 9.2 RU
- response at 40 μM mCaM injection [5]: 13 RU
- Req value at 25 μM mCaM injection [6]: 10.6 RU
- Req value at 50 μM mCaM injection [7]: 11 RU
- Req value at 50 μM mCaM injection [8]: 36.7 RU
- Kd [9]: 41 µM
- Req value at 40 μM mCaM injection [9]: 114 RU
- Kd [10]: 80 µM
- Req value at 40 μM mCaM injection [10]: 101 RU
